This is an account of results in PMC10456876 (2023).

For the assay, the target named is human telomeric nucleosome core particle (teloNCP) (human, UniProt P68431 1-136; P62805 1-103; P04908 1-130; P06899 1-124). Kind of assay: EMSA, concentration at 50% bound. A general note: A gel shift assay detects complexes by their altered migration in electrophoresis.

B1: wild-type MBP-tagged TRF1core (TRF1-TIN2-TPP1) (complex)
chain 1: MAEDVSSAAPSPRGCADGRDADPTEEQMAETERNDEEQFECQELLECQVQVGAPEEEEEEEEDAGLVAEAEAVAAGWMLDFLCLSLCRAFRDGRSEDFRRTRNSAEAIIHGLSSLTACQLRTIYICQFLTRIAAGKTLDAQFENDERITPLESALMIWGSIEKEHDKLHEEIQNLIKIQAIAVCMENGNFKEAEEVFERIFGDPNSHMPFKSKLLMIISQKDTFHSFFQHFSYNHMMEKIKSYVNYVLSEKSSTFLMKAAAKVVESKRTRTITSQDKPSGNDVEMETEANLDTRKSVSDKQSAVTESSEGTVSLLRSHKNLFLSKLQHGTQQQDLNKKERRVGTPQSTKKKKESRRATESRIPVSKSQPVTPEKHRARKRQAWLWEEDKNLRSGVRKYGEGNWSKILLHYKFNNRTSVMLKDRWRTMKKLKLISSDSED
chain 2: MATPLVAGPAALRFAAAASWQVVRGRCVEHFPRVLEFLRSLRAVAPGLVRYRHHERLCMGLKAKVVVELILQGRPWAQVLKALNHHFPESGPIVRDPKATKQDLRKILEAQETFYQQVKQLSEAPVDLASKLQELEQEYGEPFLAAMEKLLFEYLCQLEKALPTPQAQQLQDVLSWMQPGVSITSSLAWRQYGVDMGWLLPECSVTDSVNLAEPMEQNPPQQQRLALHNPLPKAKPGTHLPQGPSSRTHPEPLAGRHFNLAPLGRRRVQSQWASTRGGHKERPTVMLFPFRNLGSPTQVISKPESKEEHAIYTADLAMGTRAASTGKSKSPCQTLGGRALKENPVDLPATEQKENCLDCYMDPLRLSLLPPRARKPVCPPSLCSSVITIGDLVLDSDEEENGQGEGKESLENYQKTKFDTLIPTLCEYLPPSGHGAIPVSSCDCRDSSRPL
chain 3: MAGSGRLVLRPWIRELILGSETPSSPRAGQLLEVLQDAEAAVAGPSHAPDTSDVGATLLVSDGTHSVRCLVTREALDTSDWEEKEFGFRGTEGRLLLLQDCGVHVQVAEGGAPAEFYLQVDRFSLLPTEQPRLRVPGCNQDLDVQKKLYDCLEEHLSESTSSNAGLSLSQLLDEMREDQEHQGALVCLAESCLTLEGPCTAPPVTHWAASRCKATGEAVYTVPSSMLCISENDQLILSSLGPCQRTQGPELPPPDPALQDLSLTLIASPPSSPSSSGTPALPGHMSSEESGTSISLLPALSLAAPDPGQRSSSQPSPAICSAPATLTPRSPHASRTPSSPLQSCTPSLSPRSHVPSPHQALVTRPQKPSLEFKEFVGLPCKNRPPFPRTGATRGAQEPCSVWEPPKRHRDGSAFQYEYEPPCTSLCARVQAVRLPPQLMAWALHFLMDAQPGSEPTPM
modifications: phosphoserine at 434, 435 and 437 (reported for the purified TRF1core sample from Sf9)
B1 came in with an EC50 of 37 nM.

Broadly, the EC50 is the concentration at which the effect is half-maximal.
